In IntAct's records for PubMed 17923090:

Molecular target: stat1_human STAT1 (UniProt P42224)
Sequence (P42224 whole entry): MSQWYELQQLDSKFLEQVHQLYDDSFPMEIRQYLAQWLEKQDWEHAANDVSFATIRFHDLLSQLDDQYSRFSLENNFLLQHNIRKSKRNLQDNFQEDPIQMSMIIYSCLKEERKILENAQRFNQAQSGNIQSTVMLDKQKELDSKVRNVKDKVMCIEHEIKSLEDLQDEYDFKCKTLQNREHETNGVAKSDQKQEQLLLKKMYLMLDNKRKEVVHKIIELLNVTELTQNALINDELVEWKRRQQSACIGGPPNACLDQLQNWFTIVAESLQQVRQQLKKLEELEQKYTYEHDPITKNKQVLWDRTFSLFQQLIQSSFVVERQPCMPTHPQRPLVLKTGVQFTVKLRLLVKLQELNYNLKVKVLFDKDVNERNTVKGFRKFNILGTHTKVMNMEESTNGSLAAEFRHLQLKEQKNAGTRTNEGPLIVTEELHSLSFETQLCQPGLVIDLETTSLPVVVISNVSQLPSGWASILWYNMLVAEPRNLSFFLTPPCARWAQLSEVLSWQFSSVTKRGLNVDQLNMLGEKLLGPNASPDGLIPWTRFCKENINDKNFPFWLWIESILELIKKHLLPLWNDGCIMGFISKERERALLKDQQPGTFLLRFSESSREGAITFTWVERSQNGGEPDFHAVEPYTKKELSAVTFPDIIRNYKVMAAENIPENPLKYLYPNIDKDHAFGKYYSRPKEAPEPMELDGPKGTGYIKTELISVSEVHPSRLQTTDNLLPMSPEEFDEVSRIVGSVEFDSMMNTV

| effect of a mutation on the interaction | Substance |
| --- | --- |
| increasing interaction | Signal transducer and activator of transcription 2 (Homo sapiens), P52630 K415R |
| decreasing interaction | Signal transducer and activator of transcription 2 (Homo sapiens), P52630 K419R |
| increasing interaction | Signal transducer and activator of transcription 2 (Homo sapiens), P52630 K390R |
| decreasing interaction | Signal transducer and activator of transcription 2 (Homo sapiens), P52630 K384R |
